# Measured values published in patent US20260234233A1 (PETMEDIX, published 2026).
# T1: Human BDNF (human, UniProt P23560 129-247)
# T1 construct: mature; also called hBDNF
# T1 sequence (looked up): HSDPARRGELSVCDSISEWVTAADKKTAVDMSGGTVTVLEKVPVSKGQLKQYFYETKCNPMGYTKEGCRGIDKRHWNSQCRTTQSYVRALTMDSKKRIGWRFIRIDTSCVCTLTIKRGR
# T2: Human NT-3 (human, UniProt P20783 139-257)
# T2 construct: mature; also called hNT-3
# T2 sequence (looked up): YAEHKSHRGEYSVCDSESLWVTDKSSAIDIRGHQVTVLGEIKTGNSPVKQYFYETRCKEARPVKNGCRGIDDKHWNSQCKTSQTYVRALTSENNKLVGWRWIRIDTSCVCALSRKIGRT
# T3: Human NT-4 (human, UniProt P34130 81-210)
# T3 construct: mature; also called hNT-4
# T3 sequence (looked up): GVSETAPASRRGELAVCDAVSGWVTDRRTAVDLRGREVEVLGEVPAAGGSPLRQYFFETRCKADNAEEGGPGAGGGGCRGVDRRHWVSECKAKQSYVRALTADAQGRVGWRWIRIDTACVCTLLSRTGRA
# Tests used:
# Human NGF (human) = Human NGF (human) (UniProt P01138); test: cell-based or functional assay
# [1] = biological target: NGF (species not stated) (Homo sapiens (Human)) (UniProt P01138); test: cell-based or functional assay
# Human proNGF [2] = biological target: T4, Human proNGF (human, UniProt P01138 19-241); test: SPR, Biacore 8K, binder captured on Protein A chip, ligand as analyte
# T4 construct: This is the precursor form with the pro-peptide; also called h-proNGF; the pro-peptide
# Human proNGF [3] = biological target: T4, Human proNGF; test: as above; remark: listed apart in the source
# Method: (§1) Binding affinity of fusion proteins to human and rat NGF was assessed using Biacore 8K (Cytiva). Briefly, Protein A Sensor Chip (Cytiva) was docked into Biacore 8K, equilibrated for 30′ at RT and then Running Buffer (10 mM HEPES pH7.4 150 mM NaCl 3 mM EDTA and 0.005% Tween20) was applied to the SPR chip surface.
# (§2) PetML119var was diluted into running buffer at 6 nM concentration. These were immobilised using 90 sec association at 10 uL/min as capturing step, followed by injection of running buffer to remove any unbound product.
# Human BDNF = biological target: T1, Human BDNF; test: as above
# Human NT-3 = biological target: T2, Human NT-3; test: as above
# Human NT-4 = biological target: T3, Human NT-4; test: as above
# Human NGF [4] = biological target: T5, Human NGF (human, UniProt P01138 122-241); test: cell-based or functional assay
# Human NGF [5] = biological target: T5, Human NGF; test: SPR, Biacore 8K, binder captured on Protein A chip, ligand as analyte
# Method: as §1, §2
# T4 sequence (P01138 19-241): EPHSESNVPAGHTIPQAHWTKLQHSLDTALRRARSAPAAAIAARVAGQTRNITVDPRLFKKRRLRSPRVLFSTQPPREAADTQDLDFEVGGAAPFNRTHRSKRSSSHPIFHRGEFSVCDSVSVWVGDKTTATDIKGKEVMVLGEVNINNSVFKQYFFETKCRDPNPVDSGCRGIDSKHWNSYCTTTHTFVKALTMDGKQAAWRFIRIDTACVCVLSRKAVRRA
# Chain of Human NGF (human) (P01138 122-241): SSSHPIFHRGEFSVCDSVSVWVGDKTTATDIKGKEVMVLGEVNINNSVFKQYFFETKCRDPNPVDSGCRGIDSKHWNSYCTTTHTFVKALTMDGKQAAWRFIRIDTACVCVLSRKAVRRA
# T5 sequence (P01138 122-241): as above
Binder,Kd (Human BDNF),Kd (Human NT-3),Kd (Human NT-4),further results
"Bedinvetmab (antibody, V domains shown) VH: EVQLVESGGDLVKPGGSLRLSCVASGFTFSSHGMHWVRQSPGKGLQWVAVINSGGSSTYYTDAVKGRFTISRDNAKNTVYLQMNSLRAEDTAMYYCAKESVGGWEQLVGPHFDYWGQGTLVIVSS VL: QSVLTQPTSVSGSLGQRVTISCSGSTNNIGILGASWYQLFPGKAPKLLVYGNGNRPSGVPDRFSGADSGDSVTLTITGLQAEDEADYYCQSFDTTLGAHVFGGGTHLTVL",–,–,–,"IC50 (nM), inhibition of NGF-dependent TF-1 cell proliferation (Human NGF (human)): 0.89 nM; IC Max, inhibition of NGF-dependent TF-1 cell proliferation (Human NGF (human)): 100; ICMAX (%), inhibition of NGF-dependent TF-1 cell proliferation (Human NGF (human)): 96.8%; Bottom (%), best-fit, PathHunter TrkA activation assay with NGF at 2 nM [1]: 5.35%; IC50 (nM), PathHunter TrkA activation assay with NGF at 2 nM [1]: 4.24 nM; Top (%), best-fit, PathHunter TrkA activation assay with NGF at 2 nM [1]: 123%; TrkA inhibition, PathHunter TrkA activation assay with NGF at 2 nM [1]: 100%; Kd (Human proNGF [2]): 1.8 pM"
"PetML119 (Canine p75NTR ECD-canine IgGB wt Fc protein fusion) (Fc fusion, Made in CHO cells; also called PetML119wt; p75NTR-Fc) KEACPTGLYTHSGECCKACNLGEGVAQPCGANQTVCEPCLDSVTFSDVVSATEPCKPCTECVGLQSMSAPCVEADDAVCRCAYGYYQDETTGRCEACRVCEAGSGLVFSCQDRQNTVCEECPDGTYSDEANHVDPCLPCTVCEDTERQLRECTRWADAECEEIPGGGGRENGRVPRPPDCPKCPAPEMLGGPSVFIFPPKPKDTLLIARTPEVTCVVVDLDPEDPEVQISWFVDGKQMQTAKTQPREEQFNGTYRVVSVLPIGHQDWLKGKQFTCKVNNKALPSPIERTISKARGQAHQPSVYVLPPSREELSKNTVSLTCLIKDFFPPDIDVEWQSNGQQEPESKYRTTPPQLDEDGSYFLYSKLSVDKSRWQRGDTFICAVMHEALHNHYTQKSLSHSPGK",14.4 nM,4.9 nM,7.2 nM,fold higher affinity for proNGF than for mature NGF (Human proNGF [3]): 171 ×; Kd (Human proNGF [2]): 1.9 pM
"PetML119-S109Y (Canine p75NTR ECD S109Y-canine IgGB wt Fc) (Fc fusion, Signal peptide left out as for PetML119; If the listing carries them, the end of the range is 426) KEACPTGLYTHSGECCKACNLGEGVAQPCGANQTVCEPCLDSVTFSDVVSATEPCKPCTECVGLQSMSAPCVEADDAVCRCAYGYYQDETTGRCEACRVCEAGSGLVFYCQDRQNTVCEECPDGTYSDEANHVDPCLPCTVCEDTERQLRECTRWADAECEEIPGRGGGGRENGRVPRPPDCPKCPAPEMLGGPSVFIFPPKPKDTLLIARTPEVTCVVVDLDPEDPEVQISWFVDGKQMQTAKTQPREEQFNGTYRVVSVLPIGHQDWLKGKQFTCKVNNKALPSPIERTISKARGQAHQPSVYVLPPSREELSKNTVSLTCLIKDFFPPDIDVEWQSNGQQEPESKYRTTPPQLDEDGSYFLYSKLSVDKSRWQRGDTFICAVMHEALHNHYTQKSLSHSPGK",16.7 nM,8.3 nM,12 nM,"IC50 (nM), inhibition of NGF-dependent TF-1 cell proliferation (Human NGF [4]): 0.17 nM; ICMAX (%), inhibition of NGF-dependent TF-1 cell proliferation (Human NGF [4]): 88.5%"
"PetML119-V133R (Canine p75NTR ECD V133R-canine IgGB wt Fc) (Fc fusion, Signal peptide left out as for PetML119) KEACPTGLYTHSGECCKACNLGEGVAQPCGANQTVCEPCLDSVTFSDVVSATEPCKPCTECVGLQSMSAPCVEADDAVCRCAYGYYQDETTGRCEACRVCEAGSGLVFSCQDRQNTVCEECPDGTYSDEANHRDPCLPCTVCEDTERQLRECTRWADAECEEIPGRGGGGRENGRVPRPPDCPKCPAPEMLGGPSVFIFPPKPKDTLLIARTPEVTCVVVDLDPEDPEVQISWFVDGKQMQTAKTQPREEQFNGTYRVVSVLPIGHQDWLKGKQFTCKVNNKALPSPIERTISKARGQAHQPSVYVLPPSREELSKNTVSLTCLIKDFFPPDIDVEWQSNGQQEPESKYRTTPPQLDEDGSYFLYSKLSVDKSRWQRGDTFICAVMHEALHNHYTQKSLSHSPGK",42.3 nM,7.2 nM,8.3 nM,–
PetML119-S109H (Canine p75NTR ECD S109H-canine IgGB wt Fc) (Fc fusion) KEACPTGLYTHSGECCKACNLGEGVAQPCGANQTVCEPCLDSVTFSDVVSATEPCKPCTECVGLQSMSAPCVEADDAVCRCAYGYYQDETTGRCEACRVCEAGSGLVFHCQDRQNTVCEECPDGTYSDEANHVDPCLPCTVCEDTERQLRECTRWADAECEEIPGRGGGGRENGRVPRPPDCPKCPAPEMLGGPSVFIFPPKPKDTLLIARTPEVTCVVVDLDPEDPEVQISWFVDGKQMQTAKTQPREEQFNGTYRVVSVLPIGHQDWLKGKQFTCKVNNKALPSPIERTISKARGQAHQPSVYVLPPSREELSKNTVSLTCLIKDFFPPDIDVEWQSNGQQEPESKYRTTPPQLDEDGSYFLYSKLSVDKSRWQRGDTFICAVMHEALHNHYTQKSLSHSPGK,16.2 nM,7.9 nM,9.1 nM,"IC50 (nM), inhibition of NGF-dependent TF-1 cell proliferation (Human NGF [4]): 2.15 nM; ICMAX (%), inhibition of NGF-dependent TF-1 cell proliferation (Human NGF [4]): 93.5%"
"PetML119-E75T (Canine p75NTR ECD E75T-canine IgGB wt Fc) (Fc fusion, The signal peptide (first 19 residues) is left out as for PetML119) KEACPTGLYTHSGECCKACNLGEGVAQPCGANQTVCEPCLDSVTFSDVVSATEPCKPCTECVGLQSMSAPCVEATDAVCRCAYGYYQDETTGRCEACRVCEAGSGLVFSCQDRQNTVCEECPDGTYSDEANHVDPCLPCTVCEDTERQLRECTRWADAECEEIPGRGGGGRENGRVPRPPDCPKCPAPEMLGGPSVFIFPPKPKDTLLIARTPEVTCVVVDLDPEDPEVQISWFVDGKQMQTAKTQPREEQFNGTYRVVSVLPIGHQDWLKGKQFTCKVNNKALPSPIERTISKARGQAHQPSVYVLPPSREELSKNTVSLTCLIKDFFPPDIDVEWQSNGQQEPESKYRTTPPQLDEDGSYFLYSKLSVDKSRWQRGDTFICAVMHEALHNHYTQKSLSHSPGK",15.4 nM,5.1 nM,98.5 nM,fold reduced affinity relative to PetML119wt (Human NGF [5]): 40 ×
"PetML119-D134L (Canine p75NTR ECD D134L-canine IgGB wt Fc) (Fc fusion, Signal peptide left out as for PetML119; also called D134L mutant) KEACPTGLYTHSGECCKACNLGEGVAQPCGANQTVCEPCLDSVTFSDVVSATEPCKPCTECVGLQSMSAPCVEADDAVCRCAYGYYQDETTGRCEACRVCEAGSGLVFSCQDRQNTVCEECPDGTYSDEANHVLPCLPCTVCEDTERQLRECTRWADAECEEIPGRGGGGRENGRVPRPPDCPKCPAPEMLGGPSVFIFPPKPKDTLLIARTPEVTCVVVDLDPEDPEVQISWFVDGKQMQTAKTQPREEQFNGTYRVVSVLPIGHQDWLKGKQFTCKVNNKALPSPIERTISKARGQAHQPSVYVLPPSREELSKNTVSLTCLIKDFFPPDIDVEWQSNGQQEPESKYRTTPPQLDEDGSYFLYSKLSVDKSRWQRGDTFICAVMHEALHNHYTQKSLSHSPGK",26.7 nM,8.3 nM,101 nM,fold reduced affinity relative to PetML119wt (Human NGF [5]): 20 ×
